Data: patent publication US20200277366A1 (UCB, published 2020)
Where “and” joins values, the source holds several entries; their conditions need not be identical. Equal entries are not always repeated.

What was measured:
human TNF-alpha [1] = molecular target: T1, human TNF-alpha (human, UniProt P01375 77-233); assay: cell-based or functional assay
human TNF-alpha [2] = molecular target: T1, human TNF-alpha; assay: SPR (Biacore T200), mouse IgG captured by anti-mouse IgG Fc, human TNF injected at 20 nM
Protocol: Recombinant rat/mouse chimeric IgG and Fab molecules were screened in the HEK-293-CD40-BLUE reporter assay at a number of concentrations to enable the calculation of EC50 values and determine the maximum percentage inhibition. […] IgG were also analysed in a Biacore experiment to determine binding affinities for human TNF. The assay format of the Biacore experiment was capture of the mouse IgG by immobilised anti-mouse IgG-Fc then titration of human TNF over the captured surface. BIA (Biamolecular Interaction Analysis) was performed using a Biacore T200 (GE Healthcare). Affinipure F(ab′)2 Fragment goat anti-mouse IgG, Fc fragment specific (Jackson ImmunoResearch) was immobilised on a CM5 Sensor Chip via amine coupling chemistry to a level of ˜5000 response units (RUs). HBS-EP buffer (10 mM HEPES pH 7.4, 0.15 M NaCl, 3 mM EDTA, 0.05% Surfactant P20, GE Healthcare) was used as the running buffer with a flow rate of 10 μL/min. A 10 μL injection of mouse IgG at 0.5 μg/mL was used for capture by the immobilised anti-mouse IgG-Fc. Human TNF, was injected over the captured mouse IgG twice at 20 nM at a flow rate of 30 μL/min. The surface was regenerated by 2×10 μL injection of 40 mM HCl, interspersed by a 5 μL injection of 5 mM NaOH at a flowrate of 10 μL/min. Background subtraction binding curves were analysed using the T200evaluation software (version 1.0) following standard procedures.
Neutralisation was determined using the HEK-293-CD40-BLUE reporter assay (Invivogen). […] Biacore analysis was performed to determine binding kinetics.

cynomolgus TNF-alpha = molecular target: T2, cynomolgus TNF-alpha (cynomolgus, UniProt P79337 77-233); assay: SPR (Biacore T200), Fab captured by anti-human F(ab')2, cynomolgus TNF at 3.125 nM
T2 construct: also called cyno TNF; cTNF
Protocol: (§1) The assay format of the Biacore experiment was capture of the rat/human chimeric Fabs by immobilised anti-human F(ab′) then titration of human or cynomolgus TNF over the captured surface. BIA (Biamolecular Interaction Analysis) was performed using a Biacore T200 (GE Healthcare). Affinipure F(ab′)2 Fragment goat anti-human IgG-F(ab′)2 fragment specific (Jackson ImmunoResearch) was immobilised on a CM5 Sensor Chip via amine coupling chemistry to a level of ˜5000 response units (RUs). HBS-EP buffer (10 mM HEPES pH 7.4, 0.15 M NaCl, 3 mM EDTA, 0.05% Surfactant P20, GE Healthcare) was used as the running buffer with a flow rate of 10 μL/min. A 10 μL injection of rat/human chimeric at 0.5 μg/mL was used for capture by the immobilised human IgG-F(ab′)2. Human or cynomolgus TNF, was injected over the captured rat/human chimeric Fab at (5 nM or 3.125 nM respectively) at a flow rate of 30 μL/min. The surface was regenerated by 2×10 μL injection of 50 mM HCl, interspersed by a 5 μL injection of 5 mM NaOH at a flowrate of 10 μL/min. Background subtraction binding curves were analysed using the T200evaluation software (version 1.0) following standard procedures.

human TNF-alpha [3] = molecular target: T1, human TNF-alpha; assay: SPR (Biacore T200), Fab captured by anti-human F(ab')2, human TNF at 5 nM
Protocol: as §1

EC50 (ng/ml), HEK-293-CD40-BLUE reporter assay (human TNF-alpha [1]) [ng/mL]	Kd (human TNF-alpha [2]) [nM]	koff (human TNF-alpha [2]) [s⁻¹]	kon (human TNF-alpha [2]) [M⁻¹ s⁻¹]	Kd (cynomolgus TNF-alpha)	koff (cynomolgus TNF-alpha) [s⁻¹]	kon (cynomolgus TNF-alpha) [M⁻¹ s⁻¹]	Kd (human TNF-alpha [3])	koff (human TNF-alpha [3]) [s⁻¹]	kon (human TNF-alpha [3]) [M⁻¹ s⁻¹]	Binder
0.31	0.025	0.000119	4.7e+06							CA2109 IgG (recombinant rat/mouse chimeric IgG, rat variable regions on mouse gamma-1 / mouse kappa) (antibody, V domains shown, Rat variable regions cloned into mouse gamma-1 IgG and mouse kappa expression vectors, expressed in HEK-293; also called fwk18 IgG) VH: EVQLHQSGAALVKPGASVKLSCKTSGYTFTDNYIHWVKQSPGKSLEWIGYINPSSAYAHYNEKFKTKATLTVDKSTNTAYMELSRLTSEDSATYFCTRRYYSAMPFAYWGQGTLVTVSS VL: DIVMTQSPASLSASLGETVTIECRASEDIYNGLAWYQQKPGKSPHLLIYNSNTLHTGVPSRFSGTGSGTQYSLKINSLQSEDVATYFCQQNYDFPLTFGSGTKLELK
				0.0274 nM and 0.027 nM	0.000102	3.71e+06	0.0349 nM and 0.035 nM	0.000143	4.09e+06	02109 rat/human chimeric Fab (Fab, V domains shown, Rat variable regions with human Fab constant regions; not the humanised graft; also called CA2109) VH: EVQLHQSGAALVKPGASVKLSCKTSGYTFTDNYIHWVKQSPGKSLEWIGYINPSSAYAHYNEKFKTKATLTVDKSTNTAYMELSRLTSEDSATYFCTRRYYSAMPFAYWGQGTLVTVSS VL: DIVMTQSPASLSASLGETVTIECRASEDIYNGLAWYQQKPGKSPHLLIYNSNTLHTGVPSRFSGTGSGTQYSLKINSLQSEDVATYFCQQNYDFPLTFGSGTKLELK
